Experimental data from patent US10414821.
pEC50, pIC50: −log10 of the molar value.

Experiments:
PD-1 [1] = target: PD-1 (UniProt Q15116); assay: ELISA
Target sequence in this assay (Q15116 25-170): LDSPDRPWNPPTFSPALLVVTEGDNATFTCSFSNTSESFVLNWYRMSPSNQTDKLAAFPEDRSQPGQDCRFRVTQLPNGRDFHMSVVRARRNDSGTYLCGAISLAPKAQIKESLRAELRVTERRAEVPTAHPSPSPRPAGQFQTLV

PD-1 [2] = target: PD-1 (UniProt Q15116); assay: blocking ELISA (PD-1/PD-L1)
Target sequence in this assay (Q15116 25-167): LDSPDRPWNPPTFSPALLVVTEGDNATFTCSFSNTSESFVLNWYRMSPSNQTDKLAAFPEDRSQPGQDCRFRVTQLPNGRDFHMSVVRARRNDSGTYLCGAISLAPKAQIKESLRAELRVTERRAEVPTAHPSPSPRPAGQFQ

Substance | pEC50 (PD-1 [1]) | pIC50 (PD-1 [2])
MK3475 | 10.10 | 
MK-3475 |  | 9.22
